Some results are limits rather than exact numbers.

For data set [1], the target named is T1, N-terminally FLAG tagged Tgl2 (S. cerevisiae, UniProt P54857 1-326).
T1 sequence (looked up): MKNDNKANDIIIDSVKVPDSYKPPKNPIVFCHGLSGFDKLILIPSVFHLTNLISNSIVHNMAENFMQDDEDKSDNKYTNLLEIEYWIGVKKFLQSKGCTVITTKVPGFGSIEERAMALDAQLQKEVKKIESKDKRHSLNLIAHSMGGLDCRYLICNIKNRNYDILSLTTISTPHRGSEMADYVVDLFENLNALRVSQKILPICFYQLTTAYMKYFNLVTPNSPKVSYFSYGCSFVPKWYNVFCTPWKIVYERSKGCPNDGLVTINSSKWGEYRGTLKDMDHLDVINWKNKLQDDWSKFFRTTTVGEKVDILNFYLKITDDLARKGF
Description: native gel or EMSA. For orientation: Mobility shift assays separate free from complexed probe on a gel.

Data set [2] deals with the molecule itself. As to the kind of experiment: non-reducing SDS-PAGE with immunodecoration.

B1: N-terminally HA tagged Tgl2 (natural protein, S. cerevisiae, UniProt P54857 1-326, looked up)
chain: MKNDNKANDIIIDSVKVPDSYKPPKNPIVFCHGLSGFDKLILIPSVFHLTNLISNSIVHNMAENFMQDDEDKSDNKYTNLLEIEYWIGVKKFLQSKGCTVITTKVPGFGSIEERAMALDAQLQKEVKKIESKDKRHSLNLIAHSMGGLDCRYLICNIKNRNYDILSLTTISTPHRGSEMADYVVDLFENLNALRVSQKILPICFYQLTTAYMKYFNLVTPNSPKVSYFSYGCSFVPKWYNVFCTPWKIVYERSKGCPNDGLVTINSSKWGEYRGTLKDMDHLDVINWKNKLQDDWSKFFRTTTVGEKVDILNFYLKITDDLARKGF
In the case of B1, the figures for the “stoichiometry N” value in data set [1] and in data set [2] were no less than 2 and 2, respectively.
